Measured values as given in patent publication US20180002420A1 (TRELLIS BIOSCIENCE, published 2018).

B1: TRL8608 (antibody, V domains shown)
VH: QVQLVQSGAEVKKPGASVKISCKASGYTFTSYYMHWLRQAPGQGLEWMGVINPTDGSTSYAQKFHGRVTMTRVTSTSTVYMDLSSLRSDDTAMYYCAKAHIHAAEGEWFDPWGQGTLVTVSS
VL: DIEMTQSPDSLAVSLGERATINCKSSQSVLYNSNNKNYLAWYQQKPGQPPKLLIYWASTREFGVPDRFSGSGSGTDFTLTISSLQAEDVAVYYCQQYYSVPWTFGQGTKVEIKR
notes: Human variable regions cloned from donor B cells and fused recombinantly to an independently cloned generic constant region; Kappa light chain
B2: TRL8605 (antibody, V domains shown)
VH: QVQLVQSGGGVVQPGRSLRLSCAVSGFTFSSYGMHWVRQAPGKGLEWVTIISYDGSNYDYADSVKGRFTISRDNSKNMVYLQMNSLRADDTAVYYCAKDGFDYWGQGTLVTVSS
VL: DIVLTQSPDSLAVSLGERATINCKSSQSVLYSSNNRTYLAWFQQKSGQPPKLLIYWASTRQSGVADRFSGSGSGTDFTLTISSLQAEDVAVYYCQQYYTTPFTFGPGTRVDFKR
notes: as for B1
B3: TRL8504 (antibody, V domains shown)
VH: QVQLVESGGGVVRPGRSLRLSCAASGFTFNRFAMHWVRQAPGKGLEWVSVISYDGHNKYYIDSVKGRFTISRDDSKNTLHLQMNSLRPEDTAVYYCARARDDGRGIFDYWGQGILVTVSS
VL: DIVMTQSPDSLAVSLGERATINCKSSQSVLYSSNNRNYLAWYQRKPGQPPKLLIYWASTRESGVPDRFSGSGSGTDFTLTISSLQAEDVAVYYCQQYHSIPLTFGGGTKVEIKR
notes: as for B1
B4: TRL8507 (antibody, V domains shown)
VH: QVQLVESGGGVVQPGRSLRLSCAASGFTFSNYGMHWVRQAPGKGLEWVAVISFDGGNKYYADSVKGRFTISRDNSKNTLYLQMNSLRAEDTAVYYCAKSGYFDSSGYFYPYYYYGMDVWGQGTTVTVSS
VL: DIELTQAPSVSVSPGQTARITCSGDALPKEYAYWYQQKPGQAPVLVIYKDSERPSGIPERFSGSSSGTTVTLTISGVQAEDEGDYYCQSADSSGTHVVFGGGTKLTVL
notes: Human variable regions cloned from donor B cells and fused recombinantly to an independently cloned generic constant region; Lambda light chain

Legend:
[1] = target: T1, KIR3DL2 Extracellular Domain (UniProt P43630 22-340, limits assumed); assay: adsorption ELISA on coated KIR ECD, serial dilutions; ND: not detectable
T1 construct: extracellular domain; ECD either purchased or produced in house; also called KIR3DL2 ECD
T1 sequence (P43630 22-340 limits assumed): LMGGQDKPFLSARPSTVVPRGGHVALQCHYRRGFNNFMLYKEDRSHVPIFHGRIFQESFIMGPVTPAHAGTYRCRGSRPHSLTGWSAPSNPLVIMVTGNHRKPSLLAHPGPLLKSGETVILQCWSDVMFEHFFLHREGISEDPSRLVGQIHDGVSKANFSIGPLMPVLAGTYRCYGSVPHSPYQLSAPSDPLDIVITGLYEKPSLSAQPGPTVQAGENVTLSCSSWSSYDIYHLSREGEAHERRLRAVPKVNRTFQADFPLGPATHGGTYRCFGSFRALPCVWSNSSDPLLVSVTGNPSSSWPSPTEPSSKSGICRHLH
Procedure: (§1) The mAbs prepared in Example 1 were tested in adsorption ELISA using different KIR Extracellullar Domains (ECD), either purchased or produced in house. Serial dilutions allowed calculating binding affinities (listed below in Table 1 in nM); ND: not detectable.

[2] = target: T2, KIR3DL3 Extracellular Domain (UniProt Q8N743 26-322, limits assumed); assay: as above
T2 construct: extracellular domain; ECD either purchased or produced in house; also called KIR3DL3 ECD
T2 sequence (Q8N743 26-322 limits assumed): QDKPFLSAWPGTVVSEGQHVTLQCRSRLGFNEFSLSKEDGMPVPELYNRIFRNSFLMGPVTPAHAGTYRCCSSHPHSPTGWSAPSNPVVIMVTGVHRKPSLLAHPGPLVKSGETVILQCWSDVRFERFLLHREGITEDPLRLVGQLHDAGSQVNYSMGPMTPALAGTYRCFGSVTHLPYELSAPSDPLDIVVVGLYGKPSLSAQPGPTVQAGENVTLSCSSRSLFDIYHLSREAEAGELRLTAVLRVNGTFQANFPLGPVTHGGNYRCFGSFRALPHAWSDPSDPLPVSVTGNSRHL
Procedure: as §1

BSA = target: T3, BSA (UniProt P02769 25-607); assay: adsorption ELISA on coated BSA control, serial dilutions; ND: not detectable
T3 construct: Control protein in the adsorption ELISA
T3 sequence (P02769 25-607 limits assumed): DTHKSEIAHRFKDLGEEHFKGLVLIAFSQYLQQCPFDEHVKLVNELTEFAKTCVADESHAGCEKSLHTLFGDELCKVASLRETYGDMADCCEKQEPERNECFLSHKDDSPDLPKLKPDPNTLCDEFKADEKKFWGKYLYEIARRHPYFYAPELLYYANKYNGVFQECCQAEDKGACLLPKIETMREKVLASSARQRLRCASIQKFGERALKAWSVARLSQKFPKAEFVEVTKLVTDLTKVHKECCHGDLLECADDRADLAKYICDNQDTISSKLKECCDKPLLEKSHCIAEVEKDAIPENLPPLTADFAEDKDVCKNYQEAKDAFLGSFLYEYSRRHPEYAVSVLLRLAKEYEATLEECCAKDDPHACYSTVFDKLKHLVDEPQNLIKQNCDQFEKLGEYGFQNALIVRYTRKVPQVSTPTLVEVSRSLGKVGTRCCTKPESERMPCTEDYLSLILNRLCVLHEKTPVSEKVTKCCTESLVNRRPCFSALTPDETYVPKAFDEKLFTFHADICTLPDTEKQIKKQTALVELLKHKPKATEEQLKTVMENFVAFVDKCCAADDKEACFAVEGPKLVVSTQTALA

[3] = target: T4, KIR3DS1 Extracellular Domain (UniProt Q14943 22-340, limits assumed); assay: adsorption ELISA on coated KIR ECD, serial dilutions; printed as 'Affinity nM'
T4 construct: extracellular domain; ECD either purchased or produced in house; also called KIR3DS1 ECD
T4 sequence (Q14943 22-340 limits assumed): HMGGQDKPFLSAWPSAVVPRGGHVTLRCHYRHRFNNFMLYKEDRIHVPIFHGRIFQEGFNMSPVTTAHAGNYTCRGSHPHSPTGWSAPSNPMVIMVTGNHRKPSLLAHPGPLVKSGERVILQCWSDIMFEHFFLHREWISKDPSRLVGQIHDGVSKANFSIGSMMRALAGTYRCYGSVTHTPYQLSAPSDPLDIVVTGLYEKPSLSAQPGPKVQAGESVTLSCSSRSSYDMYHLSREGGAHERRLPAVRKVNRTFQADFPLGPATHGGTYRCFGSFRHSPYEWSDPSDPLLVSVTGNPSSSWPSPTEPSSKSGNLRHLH
Procedure: as §1

[4] = target: T5, KIR2DL1 Extracellular Domain (UniProt P43626 22-245, limits assumed); assay: as above
T5 construct: extracellular domain; ECD either purchased or produced in house; also called KIR2DL1 ECD
T5 sequence (P43626 22-245 limits assumed): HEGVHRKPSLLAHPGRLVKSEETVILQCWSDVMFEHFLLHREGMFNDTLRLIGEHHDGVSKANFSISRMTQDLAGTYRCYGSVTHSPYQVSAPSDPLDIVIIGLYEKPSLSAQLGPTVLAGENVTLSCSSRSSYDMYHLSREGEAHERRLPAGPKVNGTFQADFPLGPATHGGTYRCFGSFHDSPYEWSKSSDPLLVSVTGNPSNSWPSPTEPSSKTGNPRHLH
Procedure: as §1

[5] = target: T6, KIR2DL2 Extracellular Domain (UniProt P43627 22-245, limits assumed); assay: as above
T6 construct: extracellular domain; ECD either purchased or produced in house; also called KIR2DL2 ECD
T6 sequence (P43627 22-245 limits assumed): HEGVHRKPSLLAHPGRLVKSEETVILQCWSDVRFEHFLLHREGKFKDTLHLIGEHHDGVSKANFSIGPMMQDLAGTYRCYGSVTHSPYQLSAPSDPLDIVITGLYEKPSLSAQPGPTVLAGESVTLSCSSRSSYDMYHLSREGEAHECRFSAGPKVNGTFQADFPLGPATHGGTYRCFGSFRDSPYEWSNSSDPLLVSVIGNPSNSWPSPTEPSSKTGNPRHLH
Procedure: as §1

[6] = target: T7, KIR2DL3 Extracellular Domain (UniProt P43628 22-245, limits assumed); assay: as above
T7 construct: extracellular domain; ECD either purchased or produced in house; also called KIR2DL3 ECD
T7 sequence (P43628 22-245 limits assumed): as the sequence (P43627 22-245 limits assumed) above, with R16P, E35Q, C148R, I200T, K216E counted along it
Procedure: as §1

[7] = target: T8, KIR2DL4 Extracellular Domain (UniProt Q99706 22-242, limits assumed); assay: as above
T8 construct: extracellular domain; ECD either purchased or produced in house; also called KIR2DL4 ECD
T8 sequence (Q99706 22-242 limits assumed): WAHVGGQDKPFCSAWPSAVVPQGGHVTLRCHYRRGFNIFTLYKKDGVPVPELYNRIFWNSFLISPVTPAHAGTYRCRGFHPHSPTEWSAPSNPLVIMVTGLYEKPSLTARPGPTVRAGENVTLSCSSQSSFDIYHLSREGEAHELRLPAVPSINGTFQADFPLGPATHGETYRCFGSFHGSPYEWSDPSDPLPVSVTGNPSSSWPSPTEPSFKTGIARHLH
Procedure: as §1

[8] = target: T9, KIR3DL1 Extracellular Domain (UniProt P43629 22-340, limits assumed); assay: as above
T9 construct: extracellular domain; ECD either purchased or produced in house; also called KIR3DL1 ECD
T9 sequence (P43629 22-340 limits assumed): as the sequence (Q14943 22-340 limits assumed) above, with V47I, G58S, M92V, R136K, W138G, S163P, R166L, L199P, L315P counted along it
Procedure: as §1

[9] = target: T4, KIR3DS1 Extracellular Domain; assay: adsorption ELISA on coated KIR ECD, serial dilutions; ND: not detectable
Procedure: as §1

[10] = target: T8, KIR2DL4 Extracellular Domain; assay: as above
Procedure: as §1

[11] = target: T9, KIR3DL1 Extracellular Domain; assay: as above
Procedure: as §1

[12] = target: T10, KIR2DS4 Extracellular Domain (UniProt P43632 22-245, limits assumed); assay: adsorption ELISA on coated KIR ECD, serial dilutions; printed as 'Affinity nM'
T10 construct: extracellular domain; ECD either purchased or produced in house; also called KIR2DS4 ECD
T10 sequence (P43632 22-245 limits assumed): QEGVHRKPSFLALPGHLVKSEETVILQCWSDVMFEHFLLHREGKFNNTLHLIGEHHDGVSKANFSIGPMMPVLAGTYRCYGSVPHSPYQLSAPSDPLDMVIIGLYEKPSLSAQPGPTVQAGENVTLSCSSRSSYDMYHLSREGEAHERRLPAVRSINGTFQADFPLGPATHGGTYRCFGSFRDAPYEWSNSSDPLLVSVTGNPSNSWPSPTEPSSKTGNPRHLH
Procedure: as §1

[13] = target: T5, KIR2DL1 Extracellular Domain; assay: adsorption ELISA on coated KIR ECD, serial dilutions; ND: not detectable
Procedure: as §1

[14] = target: T10, KIR2DS4 Extracellular Domain; assay: as above
Procedure: as §1

[15] = target: T1, KIR3DL2 Extracellular Domain; assay: adsorption ELISA on coated KIR ECD, serial dilutions; printed as 'Affinity nM'
Procedure: as §1

Row | Binder | binding result [1] | binding result [2] | binding result (BSA) | Kd [3] [nM] | Kd [4] [nM] | Kd [5] [nM] | Kd [6] [nM] | Kd [7] [nM] | Kd [8] [nM] | binding result [9] | binding result [10] | binding result [11] | Kd [12] [nM] | binding result [13] | binding result [14] | Kd [15] [nM]
1 | B1 | no binding | no binding | no binding | 1800 | 1100 | 1800 | 79 | 2000 | 1900 |  |  |  |  |  |  | 
2 | B2 | no binding | no binding | no binding |  | 0.026 | 0.018 | 0.005 |  |  | no binding | no binding | no binding | 2.6 |  |  | 
3 | B3 | no binding | no binding | no binding | 54 |  | 12 | 38 |  | 10 |  | no binding |  | 55 | no binding |  | 
4 | B4 |  | no binding | no binding |  |  | 40 | 0.1 |  |  | no binding | no binding | no binding |  | no binding | no binding | 67
